{
  "source": "paper PMC8233664",
  "about": "“CAR T cells targeting tumor-associated exons of glypican 2 regress neuroblastoma in mice” (Cell Reports Medicine, 2021)",
  "binders": {"B1": {"name": "CT3 monoclonal antibody (antibody, V domains shown)", "VH": "EVQLQQSGPELVKPGASVKMSCKASRFTFTDYNIHWVKQSPGKTLEWIGYINPNNGDIFYKQKFNGKATLTINKSSNTAYMELRSLTSEDSAVYYCVRSSNIRYTFDRFFDVWGTGTTVTVSS", "VL": "ENVLTQSPAIMSASLGEKVTMSCRASSSVNYIYWYQQKSDASPKLWIYYTSNLAPGVPARFSGSGSGNSYSLTISSMEGEDAATYYCQQFSSSPSTFGTGTKLELK", "notes": "variable regions were cloned by 5'RACE; EM maps of the CT3 Fab/GPC2 complex deposited at wwPDB (deposition ID D_1000256119); Mouse mAb raised against the 50-residue C-terminal (exon 10) peptide of GPC2; also called CT3 mAb; source: mouse hybridoma (parental clone 2); hybridoma supernatant and purified mAb"}},
  "key": {"[1]": {"target": "T1, GPC2 exon 3 peptide 21 (Homo sapiens)", "T1 construct": "human glypican 2, 18-residue peptide no; 21 of the overlapping library (9 residues overlap), in exon 3; source: synthetic peptide (Genscript)", "T1 chain": "QPFGDSPRRLRLQITRTL", "assay": "ELISA; single 18-residue peptides at 5 μg/ml in PBS coated overnight; 1 μg/ml CT3; detected with goat anti-mouse IgG-HRP", "details": "both partners purified"}, "[2]": {"target": "T2, GPC2 exon 3 peptide 18 (Homo sapiens)", "T2 construct": "human glypican 2, 18-residue peptide no; 18 of the overlapping library (9 residues overlap), in exon 3; source: synthetic peptide (Genscript)", "T2 chain": "LLHPQYSFPPDYLLCLSR", "assay": "ELISA; single 18-residue peptides at 5 μg/ml in PBS coated overnight; 1 μg/ml CT3; detected with goat anti-mouse IgG-HRP", "details": "both partners purified"}, "[3]": {"target": "T3, GPC2 exon 3 peptide 16 (Homo sapiens)", "T3 construct": "human glypican 2, 18-residue peptide no; 16 of the overlapping library (9 residues overlap), in exon 3; source: synthetic peptide (Genscript)", "T3 chain": "LDDTLADFWAQLLERVFP", "assay": "ELISA; single 18-residue peptides at 5 μg/ml in PBS coated overnight; 1 μg/ml CT3; detected with goat anti-mouse IgG-HRP", "details": "both partners purified"}, "[4]": {"target": "T4, GPC2 exon 3 peptide 11 (Homo sapiens)", "T4 construct": "human glypican 2, 18-residue peptide no; 11 of the overlapping library (9 residues overlap), in exon 3; source: synthetic peptide (Genscript)", "T4 chain": "MLSVAQHSLTQLFSHSYG", "assay": "ELISA; single 18-residue peptides at 5 μg/ml in PBS coated overnight; 1 μg/ml CT3; detected with goat anti-mouse IgG-HRP", "details": "both partners purified"}, "[5]": {"target": "T5, GPC2 exon 3 peptide 10 (Homo sapiens)", "T5 construct": "human glypican 2, 18-residue peptide no; 10 of the overlapping library (9 residues overlap), in exon 3; source: synthetic peptide (Genscript)", "T5 chain": "RKFDEFFLEMLSVAQHSL", "assay": "ELISA; single 18-residue peptides at 5 μg/ml in PBS coated overnight; 1 μg/ml CT3; detected with goat anti-mouse IgG-HRP", "details": "both partners purified"}, "[6]": {"target": "T6, GPC2 exon 3 peptide 20 (Homo sapiens)", "T6 construct": "human glypican 2, 18-residue peptide no; 20 of the overlapping library (9 residues overlap), in exon 3; source: synthetic peptide (Genscript)", "T6 chain": "LASSTDGSLQPFGDSPRR", "assay": "ELISA; single 18-residue peptides at 5 μg/ml in PBS coated overnight; 1 μg/ml CT3; detected with goat anti-mouse IgG-HRP", "details": "both partners purified"}, "[7]": {"target": "T7, GPC2 exon 3 peptide 12 (Homo sapiens)", "T7 construct": "human glypican 2, 18-residue peptide no; 12 of the overlapping library (9 residues overlap), in exon 3; source: synthetic peptide (Genscript)", "T7 chain": "TQLFSHSYGRLYAQHALI", "assay": "ELISA; single 18-residue peptides at 5 μg/ml in PBS coated overnight; 1 μg/ml CT3; detected with goat anti-mouse IgG-HRP", "details": "both partners purified"}, "[8]": {"target": "T8, GPC2 exon 3 peptide 17 (Homo sapiens)", "T8 construct": "human glypican 2, 18-residue peptide no; 17 of the overlapping library (9 residues overlap), in exon 3; source: synthetic peptide (Genscript)", "T8 chain": "AQLLERVFPLLHPQYSFP", "assay": "ELISA; single 18-residue peptides at 5 μg/ml in PBS coated overnight; 1 μg/ml CT3; detected with goat anti-mouse IgG-HRP", "details": "both partners purified"}, "[9]": {"target": "T9, GPC2 exon 3 peptide 19 (Homo sapiens)", "T9 construct": "human glypican 2, 18-residue peptide no; 19 of the overlapping library (9 residues overlap), in exon 3; source: synthetic peptide (Genscript)", "T9 chain": "PDYLLCLSRLASSTDGSL", "assay": "ELISA; single 18-residue peptides at 5 μg/ml in PBS coated overnight; 1 μg/ml CT3; detected with goat anti-mouse IgG-HRP", "details": "both partners purified"}, "[10]": {"target": "T10, GPC2 exon 3 peptide 13 (Homo sapiens)", "T10 construct": "human glypican 2, 18-residue peptide no; 13 of the overlapping library (9 residues overlap), in exon 3; source: synthetic peptide (Genscript)", "T10 chain": "RLYAQHALIFNGLFSRLR", "assay": "ELISA; single 18-residue peptides at 5 μg/ml in PBS coated overnight; 1 μg/ml CT3; detected with goat anti-mouse IgG-HRP", "details": "both partners purified"}, "[11]": {"target": "T11, GPC2 exon 3 peptide 15 (Homo sapiens)", "T11 construct": "human glypican 2, 18-residue peptide no; 15 of the overlapping library (9 residues overlap), in exon 3; source: synthetic peptide (Genscript)", "T11 chain": "DFYGESGEGLDDTLADFW", "assay": "ELISA; single 18-residue peptides at 5 μg/ml in PBS coated overnight; 1 μg/ml CT3; detected with goat anti-mouse IgG-HRP", "details": "both partners purified"}, "[12]": {"target": "T12, GPC2 exon 3 peptide 14 (Homo sapiens)", "T12 construct": "human glypican 2, 18-residue peptide no; 14 of the overlapping library (9 residues overlap), in exon 3; source: synthetic peptide (Genscript)", "T12 chain": "FNGLFSRLRDFYGESGEG", "assay": "ELISA; single 18-residue peptides at 5 μg/ml in PBS coated overnight; 1 μg/ml CT3; detected with goat anti-mouse IgG-HRP", "details": "both partners purified"}, "[13]": {"target": "cell surface GPC2 on neuroblastoma cells (Homo sapiens, UniProt Q8N158)", "sequence (Q8N158 24-554)": "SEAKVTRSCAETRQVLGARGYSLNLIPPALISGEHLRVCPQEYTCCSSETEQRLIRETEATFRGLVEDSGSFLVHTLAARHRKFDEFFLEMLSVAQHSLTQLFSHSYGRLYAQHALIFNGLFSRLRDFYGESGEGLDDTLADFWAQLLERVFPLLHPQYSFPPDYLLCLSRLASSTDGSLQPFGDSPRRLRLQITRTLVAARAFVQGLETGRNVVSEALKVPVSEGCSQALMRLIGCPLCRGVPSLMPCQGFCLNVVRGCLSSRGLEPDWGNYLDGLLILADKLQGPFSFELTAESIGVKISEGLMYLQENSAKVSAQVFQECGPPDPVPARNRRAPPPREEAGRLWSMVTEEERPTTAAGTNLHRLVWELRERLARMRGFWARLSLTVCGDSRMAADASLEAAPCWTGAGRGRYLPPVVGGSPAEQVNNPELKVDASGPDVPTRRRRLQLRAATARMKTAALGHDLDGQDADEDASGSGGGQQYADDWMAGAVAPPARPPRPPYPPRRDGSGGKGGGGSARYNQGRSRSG", "assay": "cell-based or functional assay"}, "[14]": {"target": "human GPC2 stably overexpressed on G10 (A431) and F8 (IMR5) cells (Homo sapiens, UniProt Q8N158)", "sequence (Q8N158 24-554)": "as above", "assay": "cell-based or functional assay"}, "[15]": {"target": "T13, recombinant human GPC3 protein (Homo sapiens, UniProt P51654)", "T13 construct": "human glypican 3, recombinant protein from R&D Systems; source: bought: R&D Systems", "T13 sequence (P51654 25-580)": "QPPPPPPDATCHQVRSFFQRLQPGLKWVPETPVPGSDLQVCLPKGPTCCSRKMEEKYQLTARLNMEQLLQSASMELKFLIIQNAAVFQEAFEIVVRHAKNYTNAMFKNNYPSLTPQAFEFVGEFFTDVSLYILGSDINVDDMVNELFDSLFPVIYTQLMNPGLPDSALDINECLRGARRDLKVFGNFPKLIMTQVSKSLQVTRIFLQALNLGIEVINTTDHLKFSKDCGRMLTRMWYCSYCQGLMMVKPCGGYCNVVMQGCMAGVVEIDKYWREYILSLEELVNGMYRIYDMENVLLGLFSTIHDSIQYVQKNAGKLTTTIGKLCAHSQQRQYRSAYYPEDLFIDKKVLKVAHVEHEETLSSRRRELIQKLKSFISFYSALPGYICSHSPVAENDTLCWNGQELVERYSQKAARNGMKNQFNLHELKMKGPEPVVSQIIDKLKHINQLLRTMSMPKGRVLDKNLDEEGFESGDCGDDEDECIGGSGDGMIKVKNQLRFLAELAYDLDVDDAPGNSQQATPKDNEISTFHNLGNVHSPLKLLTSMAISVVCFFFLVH", "assay": "ELISA; plates coated with recombinant human GPC2, GPC1 and GPC3; mouse hybridoma supernatant containing 1 μg/ml of each mAb; detected with goat anti-mouse IgG-HRP", "details": "one partner purified"}, "[16]": {"target": "T14, recombinant human GPC1 protein (Homo sapiens, UniProt P35052)", "T14 construct": "human glypican 1, recombinant protein from R&D Systems; source: bought: R&D Systems", "T14 sequence (P35052 24-530)": "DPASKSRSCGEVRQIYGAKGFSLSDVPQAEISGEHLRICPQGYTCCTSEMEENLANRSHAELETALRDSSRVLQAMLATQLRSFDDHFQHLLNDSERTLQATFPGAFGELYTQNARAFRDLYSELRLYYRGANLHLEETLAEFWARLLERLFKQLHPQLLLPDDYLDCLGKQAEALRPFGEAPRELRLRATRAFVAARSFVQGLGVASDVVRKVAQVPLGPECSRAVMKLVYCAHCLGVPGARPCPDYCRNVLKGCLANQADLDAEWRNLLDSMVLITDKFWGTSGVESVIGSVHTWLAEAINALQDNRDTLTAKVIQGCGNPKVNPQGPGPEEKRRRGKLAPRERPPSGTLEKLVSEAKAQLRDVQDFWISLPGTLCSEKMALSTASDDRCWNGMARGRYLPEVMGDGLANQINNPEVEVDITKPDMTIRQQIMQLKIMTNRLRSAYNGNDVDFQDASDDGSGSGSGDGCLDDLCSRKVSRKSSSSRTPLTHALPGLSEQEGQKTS", "assay": "ELISA; plates coated with recombinant human GPC2, GPC1 and GPC3; mouse hybridoma supernatant containing 1 μg/ml of each mAb; detected with goat anti-mouse IgG-HRP", "details": "one partner purified"}, "[17]": {"target": "T15, recombinant human GPC4 protein (Homo sapiens, UniProt O75487)", "T15 construct": "human glypican 4, recombinant protein from R&D Systems; source: bought: R&D Systems", "T15 sequence (O75487 19-529)": "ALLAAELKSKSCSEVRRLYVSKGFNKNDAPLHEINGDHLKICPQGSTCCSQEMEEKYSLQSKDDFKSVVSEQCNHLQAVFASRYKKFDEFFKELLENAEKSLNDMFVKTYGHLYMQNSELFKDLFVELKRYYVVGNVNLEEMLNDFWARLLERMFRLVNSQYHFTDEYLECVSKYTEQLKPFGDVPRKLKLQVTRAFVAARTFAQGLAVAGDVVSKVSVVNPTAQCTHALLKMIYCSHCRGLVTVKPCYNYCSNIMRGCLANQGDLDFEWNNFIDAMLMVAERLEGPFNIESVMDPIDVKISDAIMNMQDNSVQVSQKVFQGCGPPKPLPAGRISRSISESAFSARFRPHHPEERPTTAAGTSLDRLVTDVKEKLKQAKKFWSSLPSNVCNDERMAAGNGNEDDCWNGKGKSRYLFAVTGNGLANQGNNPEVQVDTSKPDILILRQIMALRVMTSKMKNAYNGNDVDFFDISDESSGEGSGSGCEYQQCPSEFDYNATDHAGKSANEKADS", "assay": "ELISA; CT3 at 1 μg/ml on human GPC1 through GPC6 and mouse GPC2 proteins (R&D Systems) and GPC2 exon 3-hFc; detected with goat anti-mouse IgG-HRP", "details": "both partners purified"}, "[18]": {"target": "T16, recombinant human GPC5 protein (Homo sapiens, UniProt P78333)", "T16 construct": "human glypican 5, recombinant protein from R&D Systems; source: bought: R&D Systems", "T16 sequence (P78333 25-572)": "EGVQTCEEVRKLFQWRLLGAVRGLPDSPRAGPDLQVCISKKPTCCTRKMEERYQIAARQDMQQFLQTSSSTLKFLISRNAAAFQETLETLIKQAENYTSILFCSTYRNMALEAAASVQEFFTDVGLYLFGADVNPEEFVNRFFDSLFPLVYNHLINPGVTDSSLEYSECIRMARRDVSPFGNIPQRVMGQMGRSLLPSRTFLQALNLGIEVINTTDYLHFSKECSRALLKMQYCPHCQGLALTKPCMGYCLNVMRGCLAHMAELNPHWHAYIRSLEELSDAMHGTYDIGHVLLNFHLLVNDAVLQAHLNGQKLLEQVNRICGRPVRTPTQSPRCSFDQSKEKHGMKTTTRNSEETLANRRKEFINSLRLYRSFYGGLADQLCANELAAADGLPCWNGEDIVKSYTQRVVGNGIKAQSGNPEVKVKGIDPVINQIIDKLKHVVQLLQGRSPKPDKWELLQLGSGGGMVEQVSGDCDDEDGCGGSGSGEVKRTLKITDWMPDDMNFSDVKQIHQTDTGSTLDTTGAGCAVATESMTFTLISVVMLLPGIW", "assay": "ELISA; CT3 at 1 μg/ml on human GPC1 through GPC6 and mouse GPC2 proteins (R&D Systems) and GPC2 exon 3-hFc; detected with goat anti-mouse IgG-HRP", "details": "both partners purified"}, "[19]": {"target": "T17, recombinant human GPC6 protein (Homo sapiens, UniProt Q9Y625)", "T17 construct": "human glypican 6, recombinant protein from R&D Systems; source: bought: R&D Systems", "T17 sequence (Q9Y625 24-529)": "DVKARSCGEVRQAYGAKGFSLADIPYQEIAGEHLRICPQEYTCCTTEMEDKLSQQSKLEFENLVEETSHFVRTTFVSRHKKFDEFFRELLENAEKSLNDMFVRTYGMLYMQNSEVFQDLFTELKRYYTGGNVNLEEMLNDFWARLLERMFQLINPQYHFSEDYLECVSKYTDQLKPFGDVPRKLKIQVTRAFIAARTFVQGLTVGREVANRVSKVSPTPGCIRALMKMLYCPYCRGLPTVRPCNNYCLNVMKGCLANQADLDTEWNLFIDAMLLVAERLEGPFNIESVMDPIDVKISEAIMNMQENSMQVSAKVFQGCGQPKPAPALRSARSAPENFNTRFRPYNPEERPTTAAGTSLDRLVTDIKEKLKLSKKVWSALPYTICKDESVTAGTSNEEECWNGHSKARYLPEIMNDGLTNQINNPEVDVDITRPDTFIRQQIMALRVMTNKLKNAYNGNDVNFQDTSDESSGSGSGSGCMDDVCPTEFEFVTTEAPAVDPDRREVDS", "assay": "ELISA; CT3 at 1 μg/ml on human GPC1 through GPC6 and mouse GPC2 proteins (R&D Systems) and GPC2 exon 3-hFc; detected with goat anti-mouse IgG-HRP", "details": "both partners purified"}, "[20]": {"target": "T18, human GPC2 exon3-hFc protein (Homo sapiens)", "T18 construct": "human glypican 2, the stretch encoded by exon 3 (of transcript GPC2-201); also called recombinant exon 3 fragment of GPC2; exon 3 of GPC2; source: cloned into the pVRC8400 expression plasmid", "T18 chain": "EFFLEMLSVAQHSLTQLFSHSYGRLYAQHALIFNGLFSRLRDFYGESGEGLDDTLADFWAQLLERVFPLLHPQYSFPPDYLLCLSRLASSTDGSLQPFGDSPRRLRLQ", "assay": "ELISA; CT3 at 1 μg/ml on human GPC1 through GPC6 and mouse GPC2 proteins (R&D Systems) and GPC2 exon 3-hFc; detected with goat anti-mouse IgG-HRP", "details": "both partners purified"}, "[21]": {"target": "T19, recombinant human GPC2 protein (Homo sapiens, UniProt Q8N158)", "T19 construct": "human glypican 2 (GPC2), recombinant protein from R&D Systems; also called human glypican 2; His-tagged GPC2 protein; source: bought: R&D Systems", "T19 sequence (Q8N158 24-554)": "as the sequence (Q8N158 24-554) above", "assay": "BLI; Octet RED96; His-tagged GPC2 immobilised on Ni-NTA biosensors; association 600 s, dissociation 1800 s", "details": "both partners purified"}},
  "data": [
    {"binder": "B1", "values": [
      {"measurement": "binding result", "setting": "[1]", "value": "no binding (tested: 1 μg/ml of CT3)"},
      {"measurement": "binding result", "setting": "[2]", "value": "no binding (tested: 1 μg/ml of CT3)"},
      {"measurement": "binding result", "setting": "[3]", "value": "no binding (tested: 1 μg/ml of CT3)"},
      {"measurement": "binding result", "setting": "[4]", "value": "no binding (tested: 1 μg/ml of CT3)"},
      {"measurement": "binding result", "setting": "[5]", "value": "no binding (tested: 1 μg/ml of CT3)"},
      {"measurement": "binding result", "setting": "[6]", "value": "no binding (tested: 1 μg/ml of CT3)"},
      {"measurement": "binding result", "setting": "[7]", "value": "no binding (tested: 1 μg/ml of CT3)"},
      {"measurement": "binding result", "setting": "[8]", "value": "no binding (tested: 1 μg/ml of CT3)"},
      {"measurement": "binding result", "setting": "[9]", "value": "no binding (tested: 1 μg/ml of CT3)"},
      {"measurement": "binding result", "setting": "[10]", "value": "no binding (tested: 1 μg/ml of CT3)"},
      {"measurement": "binding result", "setting": "[11]", "value": "no binding (tested: 1 μg/ml of CT3)"},
      {"measurement": "binding result", "setting": "[12]", "value": "no binding (tested: 1 μg/ml of CT3)"},
      {"measurement": "cytotoxicity of CT3 CAR T cells (CT3 as scFv in a CAR with CD8α hinge) on NBEB cells, xCELLigence real-time analysis, E:T ratio 1:1, 25 h", "setting": "[13]", "value": 74, "unit": "%"},
      {"measurement": "cytotoxicity of CT3 CAR T cells (CT3 as scFv in a CAR with CD8α hinge) on SKNAS cells, xCELLigence real-time analysis, E:T ratio 1:1, 25 h", "setting": "[13]", "value": 43, "unit": "%"},
      {"measurement": "lysis of NB PDX-derived cells by CT3 CAR T cells (CT3 as scFv in a 4-1BB CAR), luciferase-based killing assay, E:T ratio 25:1, 24 to 72 h of co-culture", "setting": "[13]", "value": 80, "unit": "%"},
      {"measurement": "lysis of G10 and F8 cells (high GPC2) by CT3 CAR T cells (CT3 as scFv in a 4-1BB CAR), luciferase-based killing assay, 24 h, E:T ratio 3:1", "setting": "[14]", "value": "~70", "unit": "%"},
      {"measurement": "binding result", "setting": "[15]", "value": "no binding (tested: 1 μg/ml of each mAb)"},
      {"measurement": "binding result", "setting": "[16]", "value": "no binding (tested: 1 μg/ml of each mAb)"},
      {"measurement": "binding result", "setting": "[17]", "value": "no binding (tested: 1 μg/mL of CT3)"},
      {"measurement": "binding result", "setting": "[18]", "value": "no binding (tested: 1 μg/mL of CT3)"},
      {"measurement": "binding result", "setting": "[19]", "value": "no binding (tested: 1 μg/mL of CT3)"},
      {"measurement": "binding result", "setting": "[20]", "value": "binds"},
      {"measurement": "Kd", "setting": "[21]", "value": 0.5, "unit": "nM"}
    ]}
  ]
}
